Assay results taken from the supplement of paper PMC9112550, “Optimization of the antimicrobial peptide Bac7 by deep mutational scanning” (BMC Biology, 2022).

System: Escherichia coli TOP10
Assay: shrunken log2 fold change of peptide-encoding DNA abundance (4.5 h post-induction vs induction); higher = less antimicrobial activity (less host growth inhibition)
Conditions: time post-induction: 4.5 h; library: site-saturation at positions 5, 18, 19, 20
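Note: peptides expressed intracellularly from a pBAD plasmid library in pooled LB shake-flask culture, induced with 0.3% L-arabinose, DNA abundance read by NGS, three biological replicates, DESeq2 with apeglm shrinkage.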

| Sequence | shrunken log2 fold change |
| --- | --- |
| RRIRVRPPRLPRPRPRPADGPRP | 0.000767 |
| RRIRVRPPRLPRPRPRPADNPRP | -0.0365 |
| RRIRVRPPRLPRPRPRPAEIPRP | -0.0984 |
| RRIRVRPPRLPRPRPRPAELPRP | 0.175 |
| RRIRVRPPRLPRPRPRPAEYPRP | -0.124 |
| RRIRVRPPRLPRPRPRPAGFPRP | 0.148 |
| RRIRVRPPRLPRPRPRPAHDPRP | 0.113 |
| RRIRVRPPRLPRPRPRPAIYPRP | -0.294 |
| RRIRVRPPRLPRPRPRPAKTPRP | 0.0432 |
| RRIRVRPPRLPRPRPRPAMKPRP | -0.187 |
| RRIRVRPPRLPRPRPRPAMNPRP | -0.498 |
| RRIRVRPPRLPRPRPRPAPIPRP | 0.152 |
| RRIRVRPPRLPRPRPRPAPNPRP | 0.334 |
| RRIRVRPPRLPRPRPRPAQKPRP | 0.135 |
| RRIRVRPPRLPRPRPRPARTPRP | 0.147 |
| RRIRVRPPRLPRPRPRPAVCPRP | 0.258 |
| RRIRVRPPRLPRPRPRPAVPPRP | 0.0151 |
| RRIRVRPPRLPRPRPRPAVTPRP | -0.269 |
| RRIRVRPPRLPRPRPRPAWNPRP | 0.219 |
| RRIRVRPPRLPRPRPRPAYFPRP | -0.325 |
| RRIRVRPPRLPRPRPRPAYKPRP | -0.181 |
| RRIRVRPPRLPRPRPRPAYRPRP | -0.0828 |
| RRIRVRPPRLPRPRPRPCAKPRP | 0.128 |
| RRIRVRPPRLPRPRPRPCAQPRP | -0.186 |
| RRIRVRPPRLPRPRPRPCCMPRP | -0.181 |

| Sequence | shrunken log2 fold change |
| --- | --- |
| RRIRVRPPRLPRPRPRPCDAPRP | 0.121 |
| RRIRVRPPRLPRPRPRPCDEPRP | -0.488 |
| RRIRVRPPRLPRPRPRPCDQPRP | -0.0149 |
| RRIRVRPPRLPRPRPRPCHCPRP | -0.373 |
| RRIRVRPPRLPRPRPRPCHGPRP | 0.000197 |
| RRIRVRPPRLPRPRPRPCHHPRP | -0.00671 |
| RRIRVRPPRLPRPRPRPCHSPRP | -0.225 |
| RRIRVRPPRLPRPRPRPCICPRP | -0.338 |
| RRIRVRPPRLPRPRPRPCIEPRP | -0.351 |
| RRIRVRPPRLPRPRPRPCINPRP | 0.0189 |
| RRIRVRPPRLPRPRPRPCIPPRP | -0.467 |
| RRIRVRPPRLPRPRPRPCKDPRP | -0.0644 |
| RRIRVRPPRLPRPRPRPCLNPRP | -0.193 |
| RRIRVRPPRLPRPRPRPCMCPRP | 0.00286 |
| RRIRVRPPRLPRPRPRPCMQPRP | 0.162 |
| RRIRVRPPRLPRPRPRPCNSPRP | -0.116 |
| RRIRVRPPRLPRPRPRPCQTPRP | -0.03 |
| RRIRVRPPRLPRPRPRPCRLPRP | -0.0106 |
| RRIRVRPPRLPRPRPRPCRMPRP | -0.0641 |
| RRIRVRPPRLPRPRPRPCTIPRP | -0.0586 |
| RRIRVRPPRLPRPRPRPCTQPRP | -0.322 |
| RRIRVRPPRLPRPRPRPCWTPRP | -0.665 |
| RRIRVRPPRLPRPRPRPCWVPRP | 0.0559 |
| RRIRVRPPRLPRPRPRPDAGPRP | 0.13 |
| RRIRVRPPRLPRPRPRPDANPRP | 0.167 |

| Sequence | shrunken log2 fold change |
| --- | --- |
| RRIRVRPPRLPRPRPRPDAQPRP | -0.136 |
| RRIRVRPPRLPRPRPRPDCIPRP | -0.161 |
| RRIRVRPPRLPRPRPRPDDRPRP | -0.0538 |
| RRIRVRPPRLPRPRPRPDDSPRP | 0.13 |
| RRIRVRPPRLPRPRPRPDECPRP | -0.00624 |
| RRIRVRPPRLPRPRPRPDELPRP | -0.0586 |
| RRIRVRPPRLPRPRPRPDFGPRP | -0.0183 |
| RRIRVRPPRLPRPRPRPDFWPRP | 0.239 |
| RRIRVRPPRLPRPRPRPDGEPRP | 0.487 |
| RRIRVRPPRLPRPRPRPDGSPRP | -0.0225 |
| RRIRVRPPRLPRPRPRPDHCPRP | -0.146 |
| RRIRVRPPRLPRPRPRPDHKPRP | -0.0198 |
| RRIRVRPPRLPRPRPRPDICPRP | 0.221 |
| RRIRVRPPRLPRPRPRPDLAPRP | 3.31 |
| RRIRVRPPRLPRPRPRPDMQPRP | -0.081 |
| RRIRVRPPRLPRPRPRPDPVPRP | -0.00845 |
| RRIRVRPPRLPRPRPRPDQGPRP | 0.00375 |
| RRIRVRPPRLPRPRPRPDRPPRP | -0.109 |
| RRIRVRPPRLPRPRPRPDRYPRP | -0.00296 |
| RRIRVRPPRLPRPRPRPDTEPRP | 0.0532 |
| RRIRVRPPRLPRPRPRPDTSPRP | -0.124 |
| RRIRVRPPRLPRPRPRPDVDPRP | -0.367 |
| RRIRVRPPRLPRPRPRPDVQPRP | -0.0199 |
| RRIRVRPPRLPRPRPRPDYTPRP | -0.495 |
| RRIRVRPPRLPRPRPRPDYVPRP | -0.406 |
